From the Human Domainome abundance scans (Beltran et al. 2025)

B1: Chromodomain-helicase-DNA-binding protein 5, residues 411 to 463; numbered along this chain, Q8TDI0 (parent)
chain: EEDDHMEFCRVCKDGGELLCCDACPSSYHLHCLNPPLPEIPNGEWLCPRCTCP

Variants of: B1
Assay: abundance fitness (aPCA) (normalised: wild type 0, dead -1); higher = more abundant; growth selection in yeast, the domain comes from the species named
Details: Homo sapiens

Abundance fitness: each site, then its substitutions
G15: D 0.098; E -0.224; W -0.087; H -0.159; N -0.359; C -0.517; M -0.165; L -0.151; R 0.087; F 0.079; T 0.036; K 0.191; V -0.061; Q 0.047; A 0.07; I -0.112
L18: D -0.972; C -0.288; I 0.035; W -0.972; E -0.812; R -0.084; P -0.91; V 0.065; S -0.754; A -0.769; F -0.969; T -0.076; M -0.019; G -0.655; N -0.932; Q -0.415
C24: T -0.464; V -0.589; P -0.791; G -0.723; E -0.564; D -0.703; L -1.15; Y -0.606; M -0.781; R -0.392; H 0.139; A -0.637; N -0.904; K -0.437; Q -1.11; I -0.886
L30: D -0.013; I -0.002; F -0.06; M 0.137; N -0.04; G 0.002; E -0.142; P 0.087; C -0.038; A 0.072; K -0.043
C12: K -0.684; E -0.504; G -0.66; V -0.828; T -0.581; D -0.574; L -0.971; I -0.601; W -0.552; R -0.783; A -0.963; N -0.852; S -0.947; F -0.756; Q -0.938; P -0.699; M -0.923
D22: H 0.005; R 0.071; M 0.051; W -0.082; N 0.093; P 0.008; V -0.085; Q 0.099; S 0.034; Y -0.059; I -0.04; C -0.046; K 0.108; L -0.026; E 0.061; A 0.05; T 0.038; F -0.139; G 0.049
S26: E 0.011; A 0.044; R -0.106; I -0.08; N 0.167; W -0.37; H -0.008; L 0.001; Q -0.387; C -0.107; K -0.062; G -0.036; T 0.002; V 0.02; D 0.011
K13: H -0.265; Y -0.368; R -0.068; C 0.021; W -0.299; G -0.008; A 0.015; M -0.18; I -0.644; D 0.01; F -0.546; E 0.142; S -0.309; T -0.311; N 0.075; L -0.206
R10: V -0.25; D -0.119; T 0.012; Q -0.106; F 0.178; K -0.218; W -0.212; N 0.026; G -0.035; L -0.06; H -0.028; Y 0.037; S -0.089; P -0.413; I -0.089
D14: K -0.133; V -0.157; W -0.232; S -0.17; H -0.037; M -0.051; P -0.984; E 0.059; N -0.061; Q -0.2; G 0.086; Y -0.452; I -0.519; C -0.291; L -0.153
L19: P -1.22; F 0.001; G -0.571; I 0.26; R -0.078; Q -0.155; C -0.317; Y 0.099; E -0.346; W -0.288; T -0.169; V -0.031; S -0.537; K -0.361
P25: L -0.157; S 0.022; R 0.087; C 0.087; Q -0.118; W -0.067; V 0.03; A 0.094; K 0.058; N -0.025; G 0.085; T 0.044; M -0.11; H 0.024; Y 0.023; E 0.054; I -0.04; F -0.094
H29: Y -0.652; I -1.2; W -1.25; S -0.825; P -0.732; T -1.14; M -0.87; V -0.882; R -0.741; G -0.825; K -1.06; L -0.528; F -0.765; C -0.164
E17: V -0.228; S -0.21; W -0.458; R -0.187; C -0.187; G -0.171; H -0.138; T 0.03; Q 0.032; M -0.13; P -0.239; I -0.102; L -0.27; D -0.276; A -0.063; N -0.063; Y -0.272; K 0.007
C21: P -0.483; K -0.641; Y -0.946; N -1.03; W -0.958; A -0.83; Q -0.633; S -0.883; F -0.844; M -1.08; E -0.873; R -1.09; D -0.791; V -0.932; G -0.809; I -1.13; T -1; L -0.999; H -0.773
C20: T 0.123; E -0.049; L 0.006; H -0.065; Y 0.125; P 0.146; K 0.01; I 0.073; V 0.007; S -0.008; W -0.029; G 0.116; M -0.017; F -0.05; D 0.217; Q 0.031; A 0.071
A23: K 0.092; W -0.043; G -0.014; Q 0.305; Y 0.193; T 0.08; F -0.708; L 0.068; C -0.018; P -0.488; M -0.324; H 0.088; S 0.301; R -0.022; D -0.082
S27: H 0.026; G -0.168; R -0.056; E -0.212; D -0.3; M -0.052; Q -0.064; N 0.02; I -0.345; P -0.47; F 0.152; A 0.07; C -0.035; L -0.039
G16: S -0.023; M -0.301; R -0.518; K -0.482; V -0.36; A -0.629; P -0.832; N -0.369; L -0.28; C -0.183; D -0.003; I -0.145; E 0.411
Y28: G -0.536; F -0.007; A -0.466; I -0.535; Q -0.454; W -0.188; H -0.376; T -0.542; K -0.481; C -0.653; D -0.405; P -0.565; S -0.679; M -0.262; R -0.527; N -0.608; V -0.428; E -0.853
V11: H 0.033; W -0.193; E 0.18; M -0.008; P -0.795; I 0.069; G 0.046; R -0.113; C -0.275; A -0.276; S -0.118; D 0.062; F -0.111; N -0.131; K 0.122; L -0.1; Q -0.012; Y -0.056
